Assays:
[1] = molecular target: human CTLA4-human CD59 chimeric molecule with a human CD59 leader sequence and an (AS)3 linker (human); experiment: flow cytometry, PAEC HT 48-hCCl (low hCTLA4-hCD59); mean ± SE, n=4
[2] = molecular target: human CTLA4-human CD59 chimeric molecule with a human CD59 leader sequence and an (AS)3 linker (human); experiment: flow cytometry, PAEC HT 49-hCCm (medium hCTLA4-hCD59); mean ± SE, n=4
[3] = molecular target: human CTLA4-human CD59 chimeric molecule with a human CD59 leader sequence and an (AS)3 linker (human); experiment: flow cytometry, PAEC Control-hCCh (pig #51, high hCTLA4-hCD59); mean ± SE, n=4
[4] = molecular target: human CTLA4-human CD59 chimeric molecule with a human CD59 leader sequence and an (AS)3 linker (human); experiment: flow cytometry, PAEC Control-hCCm (pig #51, medium hCTLA4-hCD59); mean ± SE, n=4
human CD28 (human) = human CD28 (human) (UniProt P10747); experiment: cell-based or functional assay
Chain of UniProt P10747 (P10747 19-220): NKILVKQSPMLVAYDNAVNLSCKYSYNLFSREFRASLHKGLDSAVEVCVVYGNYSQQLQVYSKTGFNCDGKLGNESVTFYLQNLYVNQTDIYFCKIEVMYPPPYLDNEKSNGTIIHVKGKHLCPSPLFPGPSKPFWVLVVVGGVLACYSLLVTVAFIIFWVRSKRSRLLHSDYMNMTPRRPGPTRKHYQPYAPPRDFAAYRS

porcine CD86 (porcine) = experiment: cell-based or functional assay

Chain of human CTLA4-human CD59 chimeric molecule with a human CD59 leader sequence and an (AS)3 linker (human) (chain, as listed by the source mutant limits assumed): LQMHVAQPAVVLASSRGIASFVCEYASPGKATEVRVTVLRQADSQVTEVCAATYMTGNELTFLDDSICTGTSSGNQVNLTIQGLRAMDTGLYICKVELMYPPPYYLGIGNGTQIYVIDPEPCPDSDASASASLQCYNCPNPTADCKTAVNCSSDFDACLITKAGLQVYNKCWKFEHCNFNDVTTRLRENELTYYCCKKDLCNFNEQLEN

Substance “mouse monoclonal antibody BNI3 (Immunotech), specific for hCTLA4” has a mean fluorescence intensity [1] of 10.2 MFI, a mean fluorescence intensity [2] of 30.9 MFI and a mean fluorescence intensity [3] of 112 MFI. It also gave a mean fluorescence intensity [4] of 101 MFI.

In the case of porcine CD86 (ligand), the IL-2 secreted from Jurkat cells co-cultured with vector control PAEC and PHA (ELISA) (human CD28 (human)) was 400 pg/mL.

Work on “human CTLA4-human CD59 chimeric molecule with a human CD59 leader sequence and an (AS)3 linker” yielded an IL-2 secreted from Jurkat cells co-cultured with PI-PLC treated hCTLA4-hCD59 PAEC (porcine CD86 (porcine)) of 570 pg/mL and an IL-2 secreted from Jurkat cells co-cultured with hCTLA4-hCD59 PAEC (fold decrease) (porcine CD86 (porcine)) of 5.

— patent US20030086940A1
